Data from patent US20090081197A1 (PALATIN TECHNOLOGIES, published 2009).
Like-named read-outs stand apart in the source and are kept apart here. Starred links: 1 amine or outer side, 2 acyl side, 3 side chain; linkers in the order of their positions; H or OH if unused. Non-standard residues stand in square brackets, D forms with d. No end group written: not given here. *: point of attachment. Thr(Bzl) = O-benzyl-threonine, C[C@@H](OCc1ccccc1)[C@H](N[*:1])C(=O)[*:2]; Ser(Bzl) = O-benzyl-serine, O=C([C@H](COCc1ccccc1)N[*:1])[*:2]; dPhe(4-Cl) = N[C@H](Cc1ccc(Cl)cc1)C(=O)O; Heptanoyl = CCCCCCC(=O)*; Ahp = NCCCCCCC(=O)O

B1: NH2-(CH2)6-C(=O)-Ser(Bzl)-D-Phe(4-Cl)-Arg-Trp-Ala-NH2 (peptide)
peptide: [Ahp][Ser(Bzl)][dPhe(4-Cl)]RWA-NH2
modifications: N-terminus assumed
SMILES: C[C@H](NC(=O)[C@H](Cc1c[nH]c2ccccc12)NC(=O)[C@H](CCCNC(=N)N)NC(=O)[C@@H](Cc1ccc(Cl)cc1)NC(=O)[C@H](COCc1ccccc1)NC(=O)CCCCCCN)C(N)=O
notes: also called Compound No. 15
B2: Heptanoyl-Thr(Bzl)-D-Phe(4-Cl)-Arg-Trp-NH2 (peptide)
peptide: Heptanoyl-[Thr(Bzl)][dPhe(4-Cl)]RW-NH2
SMILES: CCCCCCC(=O)N[C@H](C(=O)N[C@H](Cc1ccc(Cl)cc1)C(=O)N[C@@H](CCCNC(=N)N)C(=O)N[C@@H](Cc1c[nH]c2ccccc12)C(N)=O)[C@@H](C)OCc1ccccc1
notes: also called Compound No. 23

How the values were obtained:
[1] = molecular target: T1, human melanocortin 4 receptor (human, UniProt P32245 1-332); test: radioligand competition, [I125]-NDP-α-MSH, hMC4-R membranes
T1 construct: whole, on cells; cAMP assays used whole cells; also called hMC4-R; MC4-R
T1 sequence (P32245 whole entry): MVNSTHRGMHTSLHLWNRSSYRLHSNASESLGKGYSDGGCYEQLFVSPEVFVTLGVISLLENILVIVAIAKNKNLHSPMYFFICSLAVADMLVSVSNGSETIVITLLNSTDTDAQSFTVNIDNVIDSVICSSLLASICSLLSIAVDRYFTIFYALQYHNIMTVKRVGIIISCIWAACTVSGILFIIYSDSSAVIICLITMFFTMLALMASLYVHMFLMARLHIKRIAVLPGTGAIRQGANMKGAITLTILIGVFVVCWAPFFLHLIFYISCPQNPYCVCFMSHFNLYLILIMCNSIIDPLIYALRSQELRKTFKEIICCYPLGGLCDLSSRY

[2] = molecular target: T2, human melanocortin 3 receptor (human, UniProt P41968 1-323); test: radioligand competition, [I125]-NDP-α-MSH, hMC3-R membranes
T2 construct: whole, on cells; also called hMC3-R; MC3-R
T2 sequence (P41968 whole entry): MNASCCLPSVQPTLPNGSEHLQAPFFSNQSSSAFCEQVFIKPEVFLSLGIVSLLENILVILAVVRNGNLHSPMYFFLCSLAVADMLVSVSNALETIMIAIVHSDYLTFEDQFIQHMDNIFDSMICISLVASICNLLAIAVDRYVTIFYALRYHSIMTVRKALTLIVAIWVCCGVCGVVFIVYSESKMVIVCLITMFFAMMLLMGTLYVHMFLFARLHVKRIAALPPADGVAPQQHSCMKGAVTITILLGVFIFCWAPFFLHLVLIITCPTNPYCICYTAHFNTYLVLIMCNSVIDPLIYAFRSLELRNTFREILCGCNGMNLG

[3] = molecular target: T1, human melanocortin 4 receptor; test: cell-based or functional assay
[4] = molecular target: T3, human melanocortin 5 receptor (human, UniProt P33032 1-325); test: radioligand competition, [I125]-NDP-α-MSH, hMC5-R membranes
T3 construct: whole, on cells; also called hMC5-R; MC5-R
T3 sequence (P33032 whole entry): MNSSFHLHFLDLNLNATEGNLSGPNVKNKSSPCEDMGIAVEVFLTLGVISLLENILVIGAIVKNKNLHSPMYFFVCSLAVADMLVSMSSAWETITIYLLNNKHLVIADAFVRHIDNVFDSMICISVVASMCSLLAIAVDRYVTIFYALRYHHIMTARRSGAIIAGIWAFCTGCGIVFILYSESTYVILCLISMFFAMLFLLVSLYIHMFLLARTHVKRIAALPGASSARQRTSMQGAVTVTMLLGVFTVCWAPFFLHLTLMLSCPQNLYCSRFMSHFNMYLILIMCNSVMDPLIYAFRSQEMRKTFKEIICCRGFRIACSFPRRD

[5] = molecular target: T1, human melanocortin 4 receptor; test: cell-based or functional assay; remark: listed apart in the source
[6] = molecular target: T4, MC1-R of B-16 mouse melanoma cells (mouse, UniProt Q01727 1-315); test: radioligand competition, [I125]-NDP-α-MSH, B-16 membranes
T4 construct: whole, on cells; also called B16-F10 (MC1-R)
T4 sequence (Q01727 whole entry): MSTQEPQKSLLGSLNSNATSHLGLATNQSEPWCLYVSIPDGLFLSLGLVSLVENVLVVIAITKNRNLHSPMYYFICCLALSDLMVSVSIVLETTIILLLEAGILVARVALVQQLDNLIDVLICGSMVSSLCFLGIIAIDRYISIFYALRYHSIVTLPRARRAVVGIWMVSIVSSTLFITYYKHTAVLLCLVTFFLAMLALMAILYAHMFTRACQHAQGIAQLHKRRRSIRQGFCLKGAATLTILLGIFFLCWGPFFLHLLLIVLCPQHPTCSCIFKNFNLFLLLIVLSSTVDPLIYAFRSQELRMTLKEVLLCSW

[7] = molecular target: T4, MC1-R of B-16 mouse melanoma cells; test: as above; remark: listed apart in the source
[8] = molecular target: T3, human melanocortin 5 receptor; test: radioligand competition, [I125]-NDP-α-MSH, hMC5-R membranes; remark: listed apart in the source
[9] = molecular target: T1, human melanocortin 4 receptor; test: radioligand competition, [I125]-NDP-α-MSH, hMC4-R membranes; remark: listed apart in the source
[10] = molecular target: T1, human melanocortin 4 receptor; test: cell-based or functional assay; remark: listed apart in the source
[11] = molecular target: T2, human melanocortin 3 receptor; test: radioligand competition, [I125]-NDP-α-MSH, hMC3-R membranes; remark: listed apart in the source

Binder | Ki [1] [nM] | Ki [2] [nM] | EC50 (nM) (cAMP), High Receptor Density System [3] | Ki [4] [nM] | EC50, normal system (cAMP) [5] [nM] | intrinsic activity, normal system (cAMP) [5] | Ki [6] [nM] | Ki [7] [nM] | Ki [8] [nM] | Ki [9] [nM] | EC50 (nM) (cAMP), High Receptor Density System [10] | EC50 (nM), normal system (cAMP) [5] [nM] | Ki [11] [nM]
B1 | 2 | 35 | 55 | 112 | > 1000 | < 0.1 | 142 | – | – | – | – | – | –
B2 | – | – | – | – | – | 0.4 | – | 747 | 292 | 21 | 184 | > 1000 | 374
